Source: patent US6613957 (UAB RESEARCH FOUNDATION, dated 2003)

B1: human α-globin polypeptide (product of the human α1-globin transgene) (other)
chain: not shown
notes: Two copies stand in each hemoglobin tetramer (α2β2); also called hα
B2: mouse α-globin polypeptide (endogenous) (other)
chain: not shown
notes: Endogenous chain in the red blood cells of the transgenic mice; also called mα

Molecular target: T1, human β-globin polypeptide (product of the human β-globin transgene) (human, UniProt P68871 2-147)
T1 construct: Two copies stand in each hemoglobin tetramer (α2β2); also called hβ
T1 sequence (P68871 2-147 limits assumed): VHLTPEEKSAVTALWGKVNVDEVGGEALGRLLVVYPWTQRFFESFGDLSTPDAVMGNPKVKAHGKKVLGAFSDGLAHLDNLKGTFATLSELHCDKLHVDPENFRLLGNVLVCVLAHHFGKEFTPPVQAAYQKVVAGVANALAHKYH
Assay: nondenaturing isoelectric focusing of transgenic mouse hemolysate; band excised and its chains identified on a denaturing cellulose acetate strip
Text: Human α and β-globin mRNA detected in lung is the result of incomplete perfusion. Mouse α and β-globin mRNA are also observed in this non-erythroid tissue. (B) Nondenaturing, isoelectric focusing of transgenic mouse hemolysates. Hemolysates of control mouse (lane 1) human (lane 4) and transgenic mouse (lanes 2 and 3) blood were run on a native agarose isoelectric focusing gel and photographed without staining. (C) Denaturing cellulose acetate strip electrophoresis of transgenic mouse hemogobins. Hemoglobins were denatured in alkaline-urea buffer, electrophoresed on cellulose acetate strips, and stained with imido black.
To determine whether complete human hemoglobins were formed, we separated hemolysates of the blood of animals from two different transgenic lines by non-denaturing ioslectric focusing (IEF) (FIG. 14B). The first lane is a mouse control and the last lane is a normal human sample. The predominant band in each of the controls is the major adult hemoglobin, mouse α_2β_2 or human α_2β_2, respectively.

| Binder | binding result |
| --- | --- |
| B1 | binds |
| B2 | binds |
